Values belong to the molecule of their own block, whether it stands above or below them.
Columns and labels:
[1] = target: hCD40 (as used in SPR) (human) (UniProt P25942); assay: SPR
[2] = target: hCD40 expressed on Jurkat cells (human, UniProt P25942); assay: cell-based or functional assay
Chain of hCD40 expressed on Jurkat cells (P25942 21-277): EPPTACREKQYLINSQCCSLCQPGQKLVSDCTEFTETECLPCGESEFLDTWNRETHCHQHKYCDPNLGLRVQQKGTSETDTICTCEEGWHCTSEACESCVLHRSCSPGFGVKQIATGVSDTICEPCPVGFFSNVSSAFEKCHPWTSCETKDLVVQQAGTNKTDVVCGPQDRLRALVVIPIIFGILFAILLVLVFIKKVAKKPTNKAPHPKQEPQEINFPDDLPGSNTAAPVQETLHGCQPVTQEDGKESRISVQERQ

Chain of hCD40 (as used in SPR) (human) (P25942 21-277): as above

B2: ChiLob7/4 hIgG2 C232S + T222C κE123C + κC214S (cross-over + T222C κE123C) (antibody, V domains shown)
VH: EVQLQQSGPDLVKPGASVKISCKTSGYTFTEYIMHWVKQSHGKSLEWIGGIIPNNGGTSYNQKFKDKATMTVDKSSSTGYMELRSLTSEDSAVYYCTRREVYGRNYYALDYWGQGTLVTVSS
VL: DIQMTQTTSSLSASLGDRVTITCSASQGINNYLNWYQQKPDGTVKLLIYYTSSLHSGVPSRFSGSGSGTDYSLTISNLEPEDIATYYCQQYSNLPYTFGGGTKLEIK
EC50 of NF-κB activation (percentage of GFP+ cells, flow cytometry, 24 h) in NF-κB/Jurkat/GFP reporter cells expressing hCD40 [2]: 1.55 ng/mL

B3: ChiLob7/4 hIgG2 C232S + K228C κC214S (cross-over + K228C) (antibody, V domains shown)
VH: B2 VH
VL: B2 VL
EC50 of NF-κB activation (percentage of GFP+ cells, flow cytometry, 24 h) in NF-κB/Jurkat/GFP reporter cells expressing hCD40 [2]: 1.55 ng/mL

Other lines, results leading:

Kd [1]: 1.97 nM
koff [1]: 0.000164 s⁻¹
Molecule: ChiLob7/4 hIgG2 wild type (from UniProt P01859)

EC50 of NF-κB activation (percentage of GFP+ cells, flow cytometry, 24 h) in NF-κB/Jurkat/GFP reporter cells expressing hCD40 [2]: 4.59 ng/mL
B1: ChiLob7/4 hIgG2 C232S κC214S (cross-over) (antibody, V domains shown)
VH: B2 VH
VL: B2 VL

Source: paper PMC11993666 (Nature Communications, 2025)
